# From patent US20140287419A1, “Compositions Having Dicamba Decarboxylase Activity and Methods of Use” (priority 2013, published 2014)
# Residue numbers refer to the chain shown, from its start.
# B1: 46 (protein, listed as Rhodococcus opacus)
# chain: MARIITLEEHYLDPAIAAASAPLARELSPDFAAAYDPASGLSYTPSAQVLQDLGQRRIADMDTHGISMQVLSCLTTQQVPADVAPDLVRAANDTAAAAVRAHPDRFAAFAALPTTAPDAAATELARCIDDLGFVGTMINGRTDGEFLDAPRFDPILATAAARNVPIYLHPAVPPRATSDSNYAGLAPLVTARLQTSAWGWHQETAVHFLHLVLSGVLDRYPNLQFILGHWGEMIPFYLDRLDEALPQAVTNLDRTISDYVRENVYITPSGMFNQAQLQYCVETLGVDRILYSVDYPFIGNDGAVSFLDEANLPDEAKHQIAHQNTEKLLGL
# B2: 56 (protein)
# chain: MAKIICLEEHYLDSELGRACMPVALEQAPFLGDWGKTVADGHNPDRSRPQIEKNALINAKGADLGSRRLRDMDEAGITLQILSVGGFPQLAPEDEAVTLNTAANDRLAEAVRNHPDRFAAFATLPWAQPKDAENELVRAVEKLGFKGALLNGRPSSCFLDHPDYDSLLSRFNKLNVPLYLHPGLPLKSVQQAYFTGFSAEVNARLSMFGWGWHHEAGIHLLRLMLSGAFDKYPNMQVISGHWGEMLPFWLQRLDDSLPLAATGLSRTLTRTFQEHVYVTPSGMLTLPHFKFIYELMGAERILFSVDYPYQTLDGVKTFIDSLPVNKAEKEAIAFRNAERLLGITA
# modifications: Enterobacter aerogenes
# B3: 47 (protein, listed as Serratia odorifera)
# chain: MAKIICLEEHTLDKALVMASMPAALAQAPFLSDWGKTITDGNLPDRSRPQIEKNDLINVKGADIGRGRLDDMDEAGITMQVLSVGGFPHLISAAEGVDLNRAANDRLANAVNAHPDRFAAFATLPWAQPDAAEKELERAVKELGFKGALLNGRPSIHFLDHPDYDGLLARFNALGVPLYLHPGLPVRSVQQAYYSGFSDEVTARLSMFGWGWHHEAGIHLLRLILSGAFDKYPNLQVISGHWGEMLPFWLQRLDDSLPQAATGLRRTITQTFREQVYVTPSGMLTLPHFQFIYALLGAERILFSVDYPYQTLDGVKAFIQSLPVPEEAKEAIAFRNAERLFGLTS
# B4: 48 (protein, listed as Amycolatopsis mediterranei)
# chain: MASMKLYGLEEHFVTADVIEAWRRRDPGLAEPMMKWAVASDITPALLDVDGGRIAAMDDAGIDTTVLSLTTPGLQNLDAAEAVALQAPTNDLIAAAVRRHPGRFQGFATLATSAPAAAADELRRAVTELGLNGALVNANSRGRALDAPGFWDIYEAAEDLRAPVYLHPGVPVPAVTEAYYRGFGEPVNSMLATGAFGWHYDAGLTILRMIVAGVFDRFPGLQVILGHWGEVVLFYLDRVAAMDKLTALRRPIAEYFRSNIFITPGGISSHKYLRWSLETVGVERIMYASDYPFNTERAGSARRFLDTAPVDEAGRERIAYRNWEELIAGIRR
# B5: 57 (protein)
# chain: MAKLICVEEHVLDPAVGAATQSLVRAEAPYLPDWGSRVLDGRHVADRSRPHVIAPSESARKALEMGEPRLADMDAASIDMQVLSYGGFPQLLPAAQAIDLNRAANDKLALAAQAHPARFAGFATLPWQAPEAAARELERAVKQLGLKGALINGRPGDTFLDDARYAPILAAFDELKVPLYVHPGLPLPAVQAPYYGGFERELSARLAMFAWGWHNEAGIQVVRMLLAGVFDRHPRLQLISGHWGEMVPFFLQRLEDSIPQEASGLQRPIVQTYREHVYISPSGMFTLPHFQFIHALMGAQRILYSIDYPYQSLDGARAFIERLPISDTDKALIAHRNAERLLHL
# modifications: Collimonas fungivorans
# B6: 55 (protein, listed as Serratia sp.)
# chain: MAKIICLEEHTLDKALVMASMPAALEQAPFLSDWGKTVTDGNLPDRSRPQIEKNDLINIKGADIGRGRLDDMDVAGITMQVLSVGGFPHLISAAEGVDLNRAANDRLADAVNAHPDRFAAFATLPWAQPDSAEKELERAVKELGFKGALLNGRPSTHFLDHPDYDGLLARFNALGVPLYLHPGLPVRSVQQAYYGGFSDEVTARLSMFGWGWHHEAGIHLLRLILSGAFDKYPNLQVISGHWGEMLPFWLQRLDDSLPQAATGLRRTIAQTFKEQVYVTPSGMLTLPHFQFIYALLGAERIIFSVDYPYQTLDGVKAFIQSLPVPEEAKEAIAFRNAERLLGLTS
# B7: 51 (protein, listed as Mycobacterium gilvum)
# chain: MARVIAIEEHYAHPGLQPAEALANLRKHPQLARIQDKLEDLGAGRLADMDAAGIDMQVLSHTVPGAEALPAAQAVDVVRQTNDDLAEVIAAHPDRFAGFAALPMRDPQAAATELQRAVGTLGFCGAMINGLIEGRFLDHPDFTPLLSTAADLGVPLYLHPSFPPPQVAQIYFGGLPPVLADLLATAGWGWHAETALHVLRLISTGVFDRLPELRVIVGHMGEMIPFALARIDTVLSPMTELRQPVAQYFQTNVWFTTSGYTTFPPLQCALSTVGIDRLIFSVDYPYTDNASARALLDTAPISPVDREKLAHATVEALLRV
# B8: 49 (protein, listed as Streptomyces sp.)
# chain: MAKIIALEEHFSDPAVAKAGAARARALSPGFAASYSPASGLPYSPSPEVLENLAEKRLADMDAGGITMQVLSGLGAQTVPADVAPALVAGSNDKAAAAVRAHPDRFAAFAALPTATPEAAVAELDRSVNELGFVGTLIMGRTEGEFLDAPRFEPILARAAALKVPVFLHPGVPPREITDSNYAAGLPTGIGTRLQTAAWGWHQETAVHFLHLVHSGVLDRYPDLQFILGHWGEMIPFYLDRVDEALPQRATGLDRSFHEYFRENVYLAPSGMWSQAQLRFCLETVPLERIVFAVDYPFIGNEGAVPFLEKAELPQADKRKIAHENAERLLGL
# B9: 52 (protein, listed as Streptomyces sp.)
# chain: B8 chain with R25Q, G75S, T116A, M234T, V285F, Q315E
# B10: 54 (protein, listed as Streptomyces sp.)
# chain: B8 chain with R25Q, T116A, V128I, D223G, Q315E
# B11: 44 (protein, listed as Mycobacterium avium)
# chain: MARIITVEEHFQHPEVSARVAELTGPAVEGLAEFGNAFSLDPDSTARLGGNRLAHMDQVGIDVQVVSHGNGSPGTLQHPEAVELCRRVNNDLAAQIAENPDRFRGFATLPLYDPAAAAEELRRCVGDLGFVGALIAGSYDGLFLDDERFDPILTAAEAVDFPIYVHPGLPEAPVSQRYYAGSWPASVHMMFSGPAFGWHAEAGIHIVRLILSGALDRHPTLKLLSGHWGELAAFYLERLDETLGLLPTGLERAPSDYYRQQVWITPSGMYNQNQLNFMTAELGAQRIIYSEDFPYVVRDNVSTFLEQAGLSEADTHAIAHTNAEALLRI
# B12: 53 (protein, listed as Granulicella tundricola)
# chain: MARTITLEEHFVTDSFLRATGAYDKPAPPWLAQLQPKLLDLGDGRIAAMDEAGIDLQVLSLAALGFDALDAATATPLVHDINDELAAAVRANPTRLAAFASLALKDPQSAARELERAIQKLGFRGVLLDGTTDGLFLDDPRFTPVFEAAVALNVPIYLHPAPPPESVFDTYFTGLPEGVGQMLSIAGWGWHAETALHTLRLITNGVFDRYPTLQLIIGHMGEMLPMALARTSKALSHAARLRQPVAAYFQSNIHLTTSGYFTQPPLRCALDVVGIDRLMFSIDYPFSANTLGRDYLTELEQTLTPEDLAKLIHRNAESLLNLS
# B13: 43 (protein, listed as Rhizobium leguminosarum)
# chain: MAQGKIALEEHFAIPETLQDSAGFVPGDYWTELSARLLDIQDKRLRLMDTHGIEKMILSLNAPAVQAIPDKAKAVEISRRANDFLAEQCVKNPNRFLGFAALPLQDPDAATQELQRCVTTMGFVGALVNGFSQEGDGTTPLYYDLPQYRPFWAEVEKLDVPFYLHPRNPLPQDSRIYAGHSWLMGPTWAFAQETAVHALRLMGSGLFDEHPALRIIVGHMGEGLPYMMWRIDNRNAWVKVEKSYPAKRPIADYFNENFYITTSGNFRTQSLIDAMLEIGADRILFSADWPFENVDHAANWFDSATISEADRLKIGRTNAVSLFKLDR
# B14: 50 (protein, listed as Streptomyces sp.)
# chain: MARIVTLEEHWTDPAVTAAGMPNLLDHVPGYAAAFDPDTGMPYPRHPELLEDLGAARIADMDRHGITTQVLSLVNTFLPADVAPRLTAAANDAMAAAVEAFPGRFAAFATLPTAVPGAAADELRRCVGELGFVGTMIMGRTDGEFLDQPRFDPILRAASDLSVPVYLHPAPPPVAVSEASYAGGLSPAVSAAFRLAAWGWHQETAVHLLHLVLAGVLDRYPGLQFVLGHWGEFIPFYLDRLDESMPRRMTGLDRTFREYFRDNVFITPSGMFSQAQLRYCADTVGTDRIIHSVDFPMLGNEGAVSFLTDSHLSREDQEKIAHGNADALLGLG
# B15: 45 (protein)
# chain: MANDDLAEVIAAHPDRFAGFAALPMRDPQAAAVELQRAVGTHGFCGAMINGLIEGRFLDDPAFAPLLSTAADLGVPLYLHPSFPPPQVAEIYFGGLAPVLGDLLATAGWGWHAETALHVLRLVATGVFDRLPELWVIVGHMGEMIPFALARIDTVLSPVAQLRQPVAQYFQTNVWFTTSGYTTFPPLQCALSTVGIDRLIFSVDYPYTDNTSARALLDTAPISPVDREKLAHGTVEALLRV
# modifications: Mycobacterium sp
# Test: 14C assay with IPTG-induced recombinant E. coli cells (14CO2 capture from [14C]-carboxyl-labeled dicamba)
# Conditions: IPTG-induced recombinant E. coli cells; [14C]-carboxyl-labeled dicamba; 14CO2 capture
row,Molecule,Dicamba Decarboxylase Activity
1,B1,High
2,B2,High
3,B3,High
4,B4,High
5,B5,High
6,B6,High
7,B7,High
8,B8,High
9,B9,High
10,B10,High
11,B11,High
12,B12,High
13,B13,High
14,B14,High
15,B15,No

# Same assay, conditions: dicamba decarboxylation activity of the protein of the given SEQ ID NO
row,Molecule,Enzymatic Detection level
1,B1,High
2,B2,High
3,B3,High
4,B4,High
5,B5,High
6,B6,High
7,B7,High
8,B8,High
9,B9,High
10,B10,High
11,B11,High
12,B12,High
13,B13,High
14,B14,High
15,B15,No
